# T1: QKI (Quaking) (UniProt Q96PU8-9 Q96PU8-9:1-319)
# T1 sequence: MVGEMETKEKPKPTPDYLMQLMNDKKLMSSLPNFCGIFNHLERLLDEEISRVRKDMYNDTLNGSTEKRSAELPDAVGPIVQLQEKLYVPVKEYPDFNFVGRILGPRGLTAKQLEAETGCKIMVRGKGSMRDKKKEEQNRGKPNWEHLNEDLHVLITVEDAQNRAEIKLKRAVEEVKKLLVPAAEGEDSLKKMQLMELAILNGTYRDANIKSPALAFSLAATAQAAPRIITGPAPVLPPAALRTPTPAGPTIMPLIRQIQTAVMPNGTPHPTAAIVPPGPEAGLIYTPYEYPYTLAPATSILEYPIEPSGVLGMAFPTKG
# Legend:
# Details in all cases: tags: N-terminal His6 (pDEST17, E. coli); label: 32P
# [1] = target: T1, QKI (Quaking); assay: EMSA; 4SU position has no significant effect on affinity; 330 mM KCl, 10 mM MgCl2, tRNA
# Procedure: (§1) Radiolabeled RNA (1 nM) was incubated with recombinant His6-QKI protein at various concentrations and 100 ng tRNA in 20 μl of 20 mM HEPES-KOH, pH 7.4, 330 mM KCl, 10 mM MgCl2, 0.1 mM EDTA and 0.01% IGEPAL CA630 (Sigma). After addition of 6 μl loading dye (40% glycerol, bromophenol blue in binding buffer), the solution was loaded onto a native 10% acrylamide gel containing 0.5×TBE, running at 200 V for 2 h at room temperature, using 0.5×TBE as running buffer. The protein-bound RNA and the free RNA were quantified using a phosphorimager.
# [2] = target: T1, QKI (Quaking); assay: EMSA; binding unaffected by 4SU; 330 mM KCl, 10 mM MgCl2, tRNA
# Procedure: as §1
# [3] = target: T1, QKI (Quaking); assay: EMSA; 330 mM KCl, 10 mM MgCl2, pH 7.4, 100 ng tRNA
# Procedure: as §1
Binder,binding result [1],further results
"GUAUGCCAUUAACAAAUUCAUUAACAA (ssRNA, 4-thiouridine at position 2) [QKI oligo 4SU at U2]",binds,
"GUAUGCCAUUAACAAAUUCAUUAACAA (ssRNA, 4-thiouridine at position 10 (position 3 of recognition element)) [QKI oligo 4SU at U10]",,binding result [2]: binds
GUAUGCCAUUAACAAAUUCAUUAACAA (ssRNA) [HOXD13 3'UTR QKI-site oligoribonucleotide],,binding result [3]: binds
"GUAUGCCAUUAACAAAUUCAUUAACAA (ssRNA, 4-thiouridine at position 4) [QKI oligo 4SU at U4]",binds,

# From patent publication US20150353923, “Method for Identifying RNA Segments Bound by RNA-Binding Proteins or Ribonucleoprotein Complexes” (Rockefeller University, published 2015)
